The results in this text go back to the RNAGym collection of RNA variant scans (doi:10.7554/elife.80360).

B1: Hammerhead Ribozyme (parent)
chain: ACCGGAUGUGCUUUCCGGUCUGAUGAGUCCGUGAGGACGAAACAG

In this data set the parent is B1. Kind of data set: self-cleavage, relative activity (ratio to wild type); higher = more cleavage; co-transcriptional.
On to C16U G18C, for which the self-cleavage was found to be 0.529.
Turning to G10U A23C, the self-cleavage worked out at 0.47.
With G25C A41G, the self-cleavage was determined as 0.359.
As for U13C A23U, the self-cleavage worked out at 0.237.
Turning to C38A, the self-cleavage is 0.833.
With U19A A34C, the self-cleavage amounted to 0.32.
As for G27C A41U, the self-cleavage is 0.333.
As to U13C G31U, the self-cleavage worked out at 1.22.
For U9A G31C, the self-cleavage was found to be 1.18.
In the case of C30U A42G, the self-cleavage worked out at 0.24.
The result for U19C A26U reads 0.492; that for C2U A6G, 0.927.
The result for U12A G31A reads 0.978.
The result for U13A G22A reads 0.298.
U13C C16G: the self-cleavage is 0.666.
For the variant G17A G25U, the self-cleavage is 0.372.
Next, G5A C38G: 0.575; U14C G33U: 1.09; C2A G33C: 0.888.
In the case of C43U A44C, the self-cleavage stood at 1.93.
The result for A6U C30A reads 0.649.
In the case of A1C A37G, the self-cleavage was 0.348.
With C3G U13C, the self-cleavage came out at 0.655.
As to G5C U7G, the self-cleavage is 0.611.
The result for C2G A23U reads 0.321; that for U14A G33C, 0.987; that for U24A C38U, 0.993.
As to G4C C11G, the self-cleavage is 0.767.
G17C A41U: the self-cleavage stood at 0.318.
For the variant G10C A37C, the self-cleavage was found to be 1.21.
As to C3G U24C, the self-cleavage was 0.477.
Take U21G C43A: the self-cleavage was determined as 0.346.
Regarding A41U A44U, the self-cleavage was determined as 0.378.
Regarding A23G G35C, the self-cleavage was 0.279.
With G8A G17C, the self-cleavage was found to be 0.493.
The result for G8U C20U reads 0.551; that for C20G C43U, 0.298; that for G35C A44G, 0.692.
Next, A37G C43G: 0.385.
The result for C2U U21C reads 0.273.
For U19G A40U, the self-cleavage is 0.323.
With G8U G22C, the self-cleavage was 0.354.
On to G5U U24A, for which the self-cleavage stood at 0.809.
In the case of A26G A41U, the self-cleavage turned out to be 0.25.
As for U12C G27A, the self-cleavage was 0.605.
As to C30U G36C, the self-cleavage is 0.667.
Consider U9A C38U, for which the self-cleavage stood at 1.23.
Next, C15A G45A: 0.498.
In the case of U28C C38U, the self-cleavage was 1.01.
Take A6C U12C: the self-cleavage turned out to be 0.899.
The result for C20G G35C reads 0.361; that for C29A G31C, 0.683; that for C15A A26C, 0.437.
Take U28C G35C: the self-cleavage came to 0.534.
Turning to U7A G27A, the self-cleavage was determined as 0.66.
Take U32G C38U: the self-cleavage was determined as 0.559.
For the variant C30U A34G, the self-cleavage came to 0.961.
For the variant A6C A40G, the self-cleavage was found to be 0.38.
As for C11A G31A, the self-cleavage was found to be 1.21.
Next, C30A A34U: 0.66; C2U G25A: 0.386.
As to C2U G25U, the self-cleavage came to 0.28.
As for U21A A23U, the self-cleavage was 0.34.
The result for U14C A40C reads 0.277.
Take U7A G39A: the self-cleavage was 0.27.
For A1G G10U, the self-cleavage turned out to be 1.99.
For the variant G35A A37G, the self-cleavage is 0.58.
Regarding G33C A41C, the self-cleavage came to 0.432.
Consider G22A A34C, for which the self-cleavage was 0.286.
The result for G17U G25A reads 0.347; that for C15U G31U, 0.881; that for G18A U28A, 0.475.
With C11G G22C, the self-cleavage was found to be 0.338.
For the variant U13C C15U, the self-cleavage was 1.03.
Next, U21C G33U: 0.795; A1U U19G: 1.28; C2G U24G: 0.356.
Consider C2G U24C, for which the self-cleavage is 0.383.
For G27U A37U, the self-cleavage was 0.521.
Next, C2G A26U: 0.315; A6C G27C: 0.478; U14A U28A: 0.656.
Next, A6U U14G: 0.624; G25U A40U: 0.417; C16A U24C: 1.33.
For G18U C29G, the self-cleavage amounted to 0.575.
In the case of G4U G36U, the self-cleavage was determined as 0.267.
Consider G4A G10A, for which the self-cleavage turned out to be 0.866.
The result for A41U G45A reads 0.401; that for G10A A23U, 0.33; that for U14C G35U, 0.761.
Regarding U7G G22U, the self-cleavage worked out at 0.369.
C2G C3A: the self-cleavage turned out to be 0.283.
As to A1G A41G, the self-cleavage came to 0.436.
Turning to G5U U19G, the self-cleavage was 0.379.
As to C11U C43U, the self-cleavage worked out at 0.529.
On to U14C U24A, for which the self-cleavage was found to be 0.726.
Turning to G10U G33C, the self-cleavage is 1.1.
For G8U G31A, the self-cleavage worked out at 1.23.
As to G10C U24A, the self-cleavage turned out to be 0.811.
With U21C G45U, the self-cleavage turned out to be 0.553.
In the case of G18U G39A, the self-cleavage amounted to 0.339.
With C38G C43A, the self-cleavage was determined as 0.456.
Take U19G U21A: the self-cleavage worked out at 0.323.
Take G5A C11A: the self-cleavage was 1.43.
Next, G22U C29A: 0.299; C2A U9A: 0.563; C2G U7G: 0.364.
Consider G22U G39A, for which the self-cleavage turned out to be 0.35.
Next, C16G U32G: 0.882.
As to G10U C20U, the self-cleavage was found to be 0.579.
As for G22C A34G, the self-cleavage turned out to be 0.306.
In the case of C3G U7G, the self-cleavage was determined as 0.625.
Turning to G17U A37G, the self-cleavage came to 0.568.
For the variant U13A U24G, the self-cleavage was 1.99.
The result for G27A G36U reads 0.391; that for U13G U14C, 0.598.
For G10U A44C, the self-cleavage was found to be 0.534.
Next, U7G G17U: 0.548; G8C A37G: 1.2; G27C G31A: 0.885.
G8U U19C: the self-cleavage was 0.649.
For A1C A6U, the self-cleavage turned out to be 0.381.
Next, U32A A41G: 0.358.
As for U7G G18A, the self-cleavage was 0.807.
Consider G8A A26C, for which the self-cleavage came to 0.577.
The result for G4U A37U reads 0.286; that for C2G A34C, 0.352.
With G4U U7A, the self-cleavage worked out at 0.432.
The result for C2A U14C reads 0.397.
Regarding A37C G39A, the self-cleavage is 0.295.
Next, C11A A37G: 1.28.
Next, U19G A42C: 0.424; G27A A34G: 0.513.
Next, A1U C16A: 0.419; C15U A42C: 0.351; U28G G36U: 0.35.
In the case of A6C U28G, the self-cleavage stood at 0.354.
Regarding G31A G36C, the self-cleavage is 0.671.
Next, G17U G18C: 0.503; A26G C30U: 0.404; A6U C29A: 0.475.
Next, A6U U9C: 0.654; G10C U14G: 0.606.
In the case of U24A G25A, the self-cleavage is 0.243.
Regarding U13C U21C, the self-cleavage was 1.23.
The result for U24A G33C reads 1.21; that for U28C G31U, 0.854; that for G18A C38U, 0.531.
For the variant G18A U24C, the self-cleavage was determined as 0.757.
On to C2G C15G, for which the self-cleavage was determined as 0.29.
With G4A G18A, the self-cleavage came to 0.372.
Consider U14A C20U, for which the self-cleavage is 0.398.
In the case of U14A C20G, the self-cleavage is 0.346.
For A1U C15G, the self-cleavage is 0.355.
With G8A U9A, the self-cleavage was determined as 0.863.
On to G8U A40C, for which the self-cleavage worked out at 0.566.
Next, G27A A42U: 0.301; U7C C29G: 0.514.
For the variant U21G A41G, the self-cleavage came to 0.29.
In the case of A6C A34C, the self-cleavage came out at 0.745.
Consider G35U G39C, for which the self-cleavage is 0.344.
In the case of G27A A37G, the self-cleavage amounted to 0.691.
Regarding A23U U32C, the self-cleavage is 0.311.
As for U14G C30U, the self-cleavage was determined as 0.552.
U21G G45A: the self-cleavage was 0.4.
In the case of G35A, the self-cleavage was determined as 0.798.
